According to patent US7838501:

Columns and labels:
[1] = target: chimeric transactivator λR-GyrB-NFκB (wild type λ repressor N-terminal domain) (bacteriophage λ; Escherichia coli); assay: cell-based or functional assay
[2] = target: chimeric transactivator λR-GyrB-NFκB with λ repressor mutation S93G (mutant clone 25) (bacteriophage λ; Escherichia coli); assay: cell-based or functional assay

For “chimeric transactivator λR-GyrB-NFκB (wild type λ repressor N-terminal domain)”, the inducibility of luciferase activity, 5 nM coumermycin 40 hr, transient transfection of 293A cells [1] was 50 fold.

In the case of “chimeric transactivator λR-GyrB-NFκB with λ repressor mutation S93G (mutant clone 25)”, the Activation factor, clone 5 [2] is reported as 5100 fold, the Activation factor, clone 8 [2] is reported as 1500 fold and the Activation factor, clone 10 [2] is reported as 3200 fold. It also gave an Activation factor, clone 18 [2] of 5800 fold, an Activation factor, clone 23 [2] of 14000 fold and an Activation factor, clone 28 [2] of 5100 fold. For the same substance, the Activation factor, clone 34 [2] was 5800 fold, the Activation factor, clone 44 [2] was 13000 fold and the Activation factor, clone 45 [2] was 1600 fold. For the same substance, the Activation factor, clone 47 [2] was 2100 fold, the Luciferase Activity, With Coum (5 nM), clone 5 (Arbitrary Light Units/µg protein) [2] was 47500 and the Luciferase Activity, With Coum (5 nM), clone 8 (Arbitrary Light Units/µg protein) [2] was 52400. For the same substance, the Luciferase Activity, With Coum (5 nM), clone 10 (Arbitrary Light Units/µg protein) [2] was 1590, the Luciferase Activity, With Coum (5 nM), clone 18 (Arbitrary Light Units/µg protein) [2] was 7450 and the Luciferase Activity, With Coum (5 nM), clone 23 (Arbitrary Light Units/µg protein) [2] was 8240. The Luciferase Activity, With Coum (5 nM), clone 28 (Arbitrary Light Units/µg protein) [2] was 12300, the Luciferase Activity, With Coum (5 nM), clone 34 (Arbitrary Light Units/µg protein) [2] was 47000 and the Luciferase Activity, With Coum (5 nM), clone 44 (Arbitrary Light Units/µg protein) [2] was 30200. For the same substance, the Luciferase Activity, With Coum (5 nM), clone 45 (Arbitrary Light Units/µg protein) [2] was 1910, the Luciferase Activity, With Coum (5 nM), clone 47 (Arbitrary Light Units/µg protein) [2] was 8530 and the Luciferase Activity, Without Coum, clone 5 (Arbitrary Light Units/µg protein) [2] was 9.4. The Luciferase Activity, Without Coum, clone 8 (Arbitrary Light Units/µg protein) [2] was 35.8, the Luciferase Activity, Without Coum, clone 10 (Arbitrary Light Units/µg protein) [2] was 0.5 and the Luciferase Activity, Without Coum, clone 18 (Arbitrary Light Units/µg protein) [2] was 1.3. It also gave a Luciferase Activity, Without Coum, clone 23 (Arbitrary Light Units/µg protein) [2] of 0.6, a Luciferase Activity, Without Coum, clone 28 (Arbitrary Light Units/µg protein) [2] of 2.4 and a Luciferase Activity, Without Coum, clone 34 (Arbitrary Light Units/µg protein) [2] of 8.1. It also gave a Luciferase Activity, Without Coum, clone 44 (Arbitrary Light Units/µg protein) [2] of 2.4, a Luciferase Activity, Without Coum, clone 45 (Arbitrary Light Units/µg protein) [2] of 1.2 and a Luciferase Activity, Without Coum, clone 47 (Arbitrary Light Units/µg protein) [2] of 4.1. For the same substance, the coumermycin concentration of maximal induction of luciferase, stable clone S93G-5, 40 hr [2] was 2.5 to 5 nM, the induction of luciferase activity, 5 nM coumermycin 40 hr, 293A cells with stable pLuc [2] was 1460 fold and the lowest coumermycin concentration with apparent induction of luciferase expression, stable clone S93G-5, 40 hr [2] was 0.5 nM. For the same substance, the suppression of coumermycin-induced (5 nM) luciferase expression by 5 µM novobiocin, 40 hr [2] was > 98%.
